Experiment [1] concerns the target T1, Recombinant HIV-1 IIIB gp120 derived from CHO cells (ImmunoDx) (HIV-1 IIIB, UniProt P04578 33-511).
T1 construct: also called HIV-1 IIIB gpl20; HIV-1 gp120
Description: flow cytometry on HEK293T point-mutant transfectants. (In general: In flow cytometry, cells or beads pass a laser one at a time.)

The target in experiment [2] is T1, Recombinant HIV-1 IIIB gp120 derived …. Description: lectin-functionalized plate, labelled glycoprotein, fluorescence read-out.

Positions count from the first letter of the chain named. Numbers in names are those of the source.

B1: DC-SIGN CRD single point mutant S360A, stably expressed on HEK293T cells (receptor)
chain: MSDSKEPRLQQLGLLEEEQLRGLGFRQTRGYKSLAGCLGHGPLVLQLLSFTLLAGLLVQVSKVPSSISQEQSRQDAIYQNLTQLKAAVGELSEKSKLQEIYQELTQLKAAVGELPEKSKLQEIYQELTRLKAAVGELPEKSKLQEIYQELTWLKAAVGELPEKSKMQEIYQELTRLKAAVGELPEKSKQQEIYQELTRLKAAVGELPEKSKQQEIYQELTRLKAAVGELPEKSKQQEIYQELTQLKAAVERLCHPCPWEWTFFQGNCYFMSNSQRNWHDSITACKEVGAQLVVIKSAEEQNFLQLQSSRSNRFTWMGLSDLNQEGTWQWVDGSPLLPSFKQYWNRGEPNNVGEEDCAEFAGNGWNDDKCNLAKFWICKKSAASCSRDEEQFLSPAPATPNPPPA
notes: whole, on cells
For the molecule B1, in experiment [1], the binding result is “binds”.

B2: DC-SIGN CRD single point mutant V351A, stably expressed on HEK293T cells (receptor)
chain: B1 chain with V351A, A360S
notes: whole, on cells
Turning to B2, in experiment [1], the binding result is listed as “binds”.

B3: DC-SIGN CRD single point mutant D367A, stably expressed on HEK293T cells (receptor)
chain: B1 chain with A360S, D367A
notes: whole, on cells
As to B3, the binding result in experiment [1] is on record as “binds”.

B4: Sambucus Nigra Agglutinin (other)
chain: VTPPVYPSVSFNLTGADTYEPFLRALQEKVILGNHTAFDLPVLNPESQVSDSNRFVLVPLTNPSGDTVTLAIDVVNLYVVAFSSNGKSYFFSGSTAVQRDNLFVDTTQEELNFTGNYTSLERQVGFGRVYIPLGPKSLDQAISSLRTYTLTAGDTKPLARGLLVVIQMVSEAARFRYIELRIRTSITDASEFTPDLLMLSMENNWSSMSSEIQQAQPGGIFAGVVQLRDERNNSIEVTNFRRLFELTYIAVLLYGCAPVTSSSYSNNAIDAQIIKMPVFRGGEYEKVCSVVEVTRRISGWDGLCVDVRYGHYIDGNPVQLRPCGNECNQLWTFRTDGTIRWLGKCLTASSSVMIYDCNTVPPEATKWVVSIDGTITNPHSGLVLTAPQAAEGTALSLENNIHAARQGWTVGDVEPLVTFIVGYKQMCLRENGENNFVWLEDCVLNRVQQEWALYGDGTIRVNSNRSLCVTSEDHEPSDLIVILKCEGSGNQRWVFNTNGTISNPNAKLLMDVAQRDVSLRKIILYRPTGNPNQQWITTTHPA
notes: also called SNA
With B4, in experiment [2], the binding result is “no binding (tested: 10, 2 and 0.4 μg/ml)”.

Source of the values: patent WO2018134389A1 (dated 2018).
